From US20260217833A1 (APTEVO RESEARCH AND DEVELOPMENT, published 2026) come the findings set out here.

Where a chain is given by its changes, count along the chain named.

Sequences and labels used below:
B1: CD4001086 (Fc fusion)
chain: EVVMTQSPGTLSLSPGERATLSCRSSQSLVHYNGYTYLHWYQQKPGQAPRLLIYKVSNRFSGIPARFSGSGSGTDFTLTISRLEPEDLAVYFCSQTTHVPLTFGQGTKVEIKGGGGSGGGGSGGGGSGGGGSEVQLVESGGGLVQPGRSLRLSCAASGFTFSSYAMSWVRQAPGKGLEWVASISSAGTYIYYADSVQGRFTISRDNGKNSLYLQMNSLRAEDTALYYCARHGNGYDPLWYFDVWGQGTMVTVSS
notes: Partly humanized 5B9 scFv on the N-terminus of a wildtype IgG1 Fc; not shown: wildtype IgG1 Fc region
B2: CD4001087 (Fc fusion)
chain: EVVMTQSPDTLSVSPGERATLSCRSSQSLVHYNGYTYLHWYQQKPGQVPRLLIYKVSNRFSGVPARFTGSGSGTEFTLTISSLQSEDFAVYFCSQTTHVPLTFGQGTKLEIKGGGGSGGGGSGGGGSGGGGSEVQLVESGGGLVQPGRSLRLSCAASGFTFSSYAMSWVRQAPGKGLEWVASISSAGTYIYYADSVQGRFTISRDNGKNSLYLQMNSLRAEDTALYYCARHGNGYDPLWYFDVWGQGTMVTVSS
notes: As m65; not shown: wildtype IgG1 Fc region
B3: CD4001097 (Fc fusion)
chain: B1 chain with E133Q, Q145K, R148G, Q197K, G207A, L225V, Q246A, M249T
notes: as for B2
B4: CD4001091 (Fc fusion)
chain: DVQMTQSPILLSASVGDRVTITCRSSQSLVHYNGYTYVHWYQQRTNGSPRLLIYKVSNRFSGVPDRFSGSGSGTDFTLTISSLQPEDIADYFCQQTTHVPLTFGAGTKVEIKGGGGSGGGGSGGGGSGGGGSEVQLVESGGGVVQPGRSLRLSCAASGFTFSSYAMSWVRQAPGKGLEWVASISSAGTYIYYADSVKGRFTISRDNSKNTLYLQMNGLRAEDTAVYYCARHGNGYDPLWYFDVWGQGTLVTVSS
notes: as for B2
B5: CD4001094 (Fc fusion)
chain: B4 chain with V137L, V143L, R148G, A193T, T201S, G217S, L249T
notes: as for B2
B6: CD4001096 (Fc fusion)
chain: B4 chain with E133Q, V143L, R148G, E178V, S207A, N216T, G217S, V225I, T248A
notes: as for B2
B7: CD4001098 (Fc fusion)
chain: B4 chain with E133Q, V143L, Q145K, R148G, S207A, T210S, G217S, Q246A, L249T
notes: as for B2
B8: CD4001092 (Fc fusion)
chain: DVVMTQSPDSLAVSLGERATINCRSSQSLVHYNGYTYLHWYQQKPGQPPKLLIYKVSNRFSGVPDRFSGSGSGTDFTLTISSLQAEDVAVYFCSQTTHVPLTFGAGTKLELRGGGGSGGGGSGGGGSGGGGSEVQLVESGGGVVQPGRSLRLSCAASGFTFSSYAMSWVRQAPGKGLEWVASISSAGTYIYYADSVKGRFTISRDNSKNTLYLQMNGLRAEDTAVYYCARHGNGYDPLWYFDVWGQGTLVTVSS
notes: as for B2
B9: CD4001101 (Fc fusion)
scFv: DIQMTQSPSTLSASVGDRVTITCKSSQSLLFSVNQKNYLAWYQQKPGKAPKLLIYWASTRESGVPARFSGSGSGTEFTLTISSLQPDDFATYYCQHYYSYPWTFGQGTKVEVKGGGGSGGGGSGGGGSGGGGSQVQLVQSGAEVKKPGASVKVSCKASGYTFSTSWIEWIKQAPGQGLEWIGEILPGSGSTNYNENFRNKATFTADTSISTAYMELSRLRSDDTAVYYCARGDDGSYVRWYFDVWGQGTLVTVSS
notes: CDR-grafted 1D5 scFv in scFv-hFc format; not shown: the human Fc (hinge-CH2-CH3) of the scFv-hFc format
B10: CD4001102 (Fc fusion)
scFv: B9 scFv with T10S, A66S, E76D, L79F, D87E, F89I, Q106G, V112I
notes: As m82; not shown: the human Fc (hinge-CH2-CH3) of the scFv-hFc format
B11: CD4001093 (Fc fusion)
chain: DVVMTQSPDTLSLSPGERATLSCRSSQSLVHYNGYTYLHWYQQQPGQAPRLLIYKVSNRFSGIPDRFSGSGSGTDFTLTISRLEPEDFAVYFCSQTTHVPLTFGQGTKLEIKGGGGSGGGGSGGGGSGGGGSEVQLLESGGGLVQPGGSLRLSCAASGFTFSSYAMSWVRQAPGKGLEWVASISSAGTYIYYTDSVKGRFSISRDNSKNTLYLQMNSLRAEDTAVYYCARHGNGYDPLWYFDVWGQGTTVTVSS
notes: as for B2
B12: CD4001095 (Fc fusion)
chain: B11 chain with E133Q, L137V, E178V, T193A, S201T, S207A, N216T, V225I, T248A, T249L
notes: as for B2
B13: CD4001078 (bispecific antibody)
PDL_5F9 x Fc-Knob: EVQLVESGGGLVKPGGSLRLSCAASGFTFSDYGMAWVRQAPGKGLEWVAFITSLAYIIYYADSVKGRFTISRDNAKNSLYLQMNSLRAEDTAVYYCARNYGSSPYYFDYWGQGTLVTVSSGGGGSGGGGSGGGGSGGGGSDIQMTQSPSSLSASVGDRVTITCRASQDINKFLSWYQQKPGKAPKLLIHYTSSLQPGVPSRFSGSGSGTDFTLTISSLQPEDFATYYCLQYDNLYTFGQGTKLEIKEPKSSDKTHTCPPCPAPPAAAPSVFLFPPKPKDTLMISRTPEVTCVVVDVSHEDPEVKFNWYVDGVEVHNAKTKPREEQYNSTYRVVSVLTVLHQDWLNGKEYKCAVSNKALPAPIEKTISKAKGQPREPQVYTLPPSRDELTKNQVSLWCLVKGFYPSDIAVEWESNGQPENNYKTTPPVLDSDGSFFLYSKLTVDKSRWQQGNVFSCSVMHEALHNHYTQKSLSLSPG
PDL_5F9 x Fc-Hole x CD40_1D5: EVQLVESGGGLVKPGGSLRLSCAASGFTFSDYGMAWVRQAPGKGLEWVAFITSLAYIIYYADSVKGRFTISRDNAKNSLYLQMNSLRAEDTAVYYCARNYGSSPYYFDYWGQGTLVTVSSGGGGSGGGGSGGGGSGGGGSDIQMTQSPSSLSASVGDRVTITCRASQDINKFLSWYQQKPGKAPKLLIHYTSSLQPGVPSRFSGSGSGTDFTLTISSLQPEDFATYYCLQYDNLYTFGQGTKLEIKEPKSSDKTHTCPPCPAPPAAAPSVFLFPPKPKDTLMISRTPEVTCVVVDVSHEDPEVKFNWYVDGVEVHNAKTKPREEQYNSTYRVVSVLTVLHQDWLNGKEYKCAVSNKALPAPIEKTISKAKGQPREPQVYTLPPSRDELTKNQVSLSCAVKGFYPSDIAVEWESNGQPENNYKTTPPVLDSDGSFFLVSKLTVDKSRWQQGNVFSCSVMHEALHNRFTQKSLSLSPGGGGSPSDIVMSQSPSSLAVSVGEKVTMSCKSSQSLLFSVNQKNYLAWYQQKPGQSPKLLIYWASTRESGVPDRFTGSGSGTDFTLTIGSVKAEDLAVYYCQHYYSYPWTFGGGTKLEIKGGGGSGGGGSGGGGSGGGGSQVQLQQSGAELMNPGASVRISCKATGYTFSTSWIEWIKQRPGHGLEWIGEILPGSGSTNYNEKFKGKATFTADTSSNTAYMQLSSLTFEDSAVYYCARGDDGSYVRWYFDVWGAGTTVTVSS
B14: CD4001081 (bispecific antibody)
Fc-knob x CD40_1D5: EPKSSDKTHTCPPCPAPPAAAPSVFLFPPKPKDTLMISRTPEVTCVVVDVSHEDPEVKFNWYVDGVEVHNAKTKPREEQYNSTYRVVSVLTVLHQDWLNGKEYKCAVSNKALPAPIEKTISKAKGQPREPQVYTLPPSRDELTKNQVSLWCLVKGFYPSDIAVEWESNGQPENNYKTTPPVLDSDGSFFLYSKLTVDKSRWQQGNVFSCSVMHEALHNHYTQKSLSLSPGGGGSPSDIVMSQSPSSLAVSVGEKVTMSCKSSQSLLFSVNQKNYLAWYQQKPGQSPKLLIYWASTRESGVPDRFTGSGSGTDFTLTIGSVKAEDLAVYYCQHYYSYPWTFGGGTKLEIKGGGGSGGGGSGGGGSGGGGSQVQLQQSGAELMNPGASVRISCKATGYTFSTSWIEWIKQRPGHGLEWIGEILPGSGSTNYNEKFKGKATFTADTSSNTAYMQLSSLTFEDSAVYYCARGDDGSYVRWYFDVWGAGTTVTVSS
PDL_5F9 x Fc-Hole x CD40_1D5: B13 PDL_5F9 x Fc-Hole x CD40_1D5
B15: PDL01047 (Fc fusion, not shown: a dimerising Fc or GST; small tags and cut ends)
scFv: DVQITQSPSYLAASPGETITINCRASKSISKYLAWYQEKPGKTNKLLIYSGSTLQSGIPSRFSGSGSGTDFTLTISSLEPEDFAMYYCQQHNEYPFTFGAGTKLEIKGGGGSGGGGSGGGGSGGGGSEVQLQESGPSLVKPSQTLSLTCSVTGDSITSGYWNWIRKFPGNRLEYMGFRSYSGTTYYNPSLKSRISITRDTSKNQYYLQLNSVTTEDTATYYCARFSDFGSSENTMDYWGQGTSVTVSS
notes: also called 7A3-2LH x human IgG1 WT Fc
B16: PDL01048 (Fc fusion, not shown: a dimerising Fc or GST; small tags and cut ends)
scFv: DIVLTQSPASLAVSLGQRATISCRASKSVSKSGYSYLHWYQQKPGQTPKLLIYLASNLESGVPARFSGSGSGTDFTLNIHPVEEEDAATYYCQHSWELPYTFGGGTKLEIKGGGGSGGGGSGGGGSGGGGSEVQLQESGPSLVKPSQTLSLTCSVTGDSITSGYWNWIRKFPGKKLEYMGYISYTGSTYYNPSLKSRISIARDTSKNQYFLQLNSVTTEDTATYYCTRGENWDGGYFDYWGQGTTLTVSS
notes: also called 7H11LH x human IgG1 WT Fc
B17: PDL01033 (Fc fusion)
scFv: EVQLQESGPSLVKPSQTLSLTCSVTGDSITSGYWNWIRKFPGKKLEYMGYISYTGSTYYNPSLKSRISIARDTSKNQYFLQLNSVTTEDTATYYCTRGENWDGGYFDYWGQGTTLTVSSGGGGSGGGGSGGGGSGGGGSDIQMTQTTSSLSASLGDRVTISCSASQGIRNYLNWYQQKPDGTVKLLIYYTSTLHSGVPSRFSGSGSGTDYSLTISNLEPEDIATYYCQQYSKLPWTFGGGTRLEIK
notes: also called 3G11HL x human IgG1 WT Fc; not shown: human IgG1 WT Fc (hinge-CH2-CH3) and its junction to the scFv

T3 sequence (Q9NZQ7 other isoform, or with tags, fused parts or gaps): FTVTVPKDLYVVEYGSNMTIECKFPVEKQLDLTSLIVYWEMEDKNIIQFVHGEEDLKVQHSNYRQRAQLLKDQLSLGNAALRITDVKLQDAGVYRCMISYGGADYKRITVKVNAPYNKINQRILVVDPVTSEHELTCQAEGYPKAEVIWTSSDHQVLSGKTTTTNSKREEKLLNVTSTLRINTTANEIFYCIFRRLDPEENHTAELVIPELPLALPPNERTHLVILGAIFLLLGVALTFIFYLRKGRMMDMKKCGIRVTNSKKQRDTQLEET
T2 sequence (Q9NZQ7 19-290): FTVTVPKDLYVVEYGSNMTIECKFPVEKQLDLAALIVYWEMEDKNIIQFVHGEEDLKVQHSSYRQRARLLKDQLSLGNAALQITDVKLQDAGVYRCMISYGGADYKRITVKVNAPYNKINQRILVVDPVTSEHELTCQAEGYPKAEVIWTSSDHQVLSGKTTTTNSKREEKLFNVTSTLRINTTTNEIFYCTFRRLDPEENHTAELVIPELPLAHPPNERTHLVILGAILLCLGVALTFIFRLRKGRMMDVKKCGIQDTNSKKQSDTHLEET

For the first experiment, the target named is T1, human CD40 full-length (human, UniProt P25942 21-277).
T1 construct: Also used for CD40 of Daudi cells, of CD40-expressing HEK293 cells and of the BPS CD40/NFkB HEK293 reporter cells where the row says so; also called CD4001012; CHOK1SV/CD40
Kind of experiment: flow cytometry, CHOK1SV/human CD40 cells. A general note: A flow cytometer gives signals particle by particle.
In the case of B1, the “EC50 (read off the curve)” value is about 2 nM.

With B2, the binding result is recorded as “binds”.

With B3, the “EC50 (read off the curve)” value is about 4 nM.

B4: the binding result is “binds”.

In the case of B5, the binding result was “binds”.

On to B6, for which the binding result was “binds”.

For the molecule B7, the binding result was “binds”.

With B8, the binding result is recorded as “binds”.

Turning to B9, the binding result is recorded as “binds”.

Turning to B10, the binding result is “binds”.

On to B11, for which the binding result is given as “binds”.

Consider B12, for which the binding result was “binds”.

A further experiment concerns the target T2, Human PD-L1 full-length (human, UniProt Q9NZQ7 19-290).
T2 construct: also called PDL01021; CHOK1SV/huPDL1
Kind of experiment: flow cytometry, CHOK1SV/human PD-L1 cells.
As to B13, the binding result is recorded as “binds”.

Consider B14, for which the binding result is listed as “binds”.

A further experiment concerns the target T2, Human PD-L1 full-length. Kind of experiment: MSD cell binding, CHOK1SV/human PD-L1 cells; x axis without printed unit.
Consider B15, for which the binding result is recorded as “binds”.

Consider B16, for which the binding result was “binds”.

As for B17, the binding result is “binds”.

The next experiment has as its target T3, Cyno PD-L1 full-length (cynomolgus, UniProt Q9NZQ7 19-290 (human entry)).
T3 construct: also called PDL01022; CHOK1SV/cynoPDL1
Put plainly: MSD cell binding, CHOK1SV/cynomolgus PD-L1 cells; x axis without printed unit.
As to B15, the binding result is “binds”.

On to B16, for which the binding result was “binds”.

Take B17: the binding result was “binds”.

One may read the EC50 (read off the curve) as the concentration needed to bring the measured effect to its halfway point. Higher therefore signals weaker potency.
